Data published in patent publication US20240252686A1 (SKYLINE THERAPEUTICS, published 2024).

Assays:
[1] = molecular target: T1, VEGFA-165 (R&D systems 293-VE/CF) (human, UniProt P15692-4 27-191); assay: ELISA as in Example 5, VEGFA-165 coated, anti-HA detection
T1 construct: Coated on ELISA plates or added in solution to reporter cells; also called human VEGF; human VEGFA
Experimental: (§1) After removing the blocker, the primary antibody (rabbit anti-HA, Thermo, PA1-985) was diluted (1:5000) with the blocking buffer (StartingBlock™ T20 (TBS) Blocking Buffer, Catalog number: 37543 of Thermo Fisher Scientific), and added to ELISA plate (50 μl/well), followed by the incubation at RT for 1h with 250 rpm gentle shaking. After washing with 1×TBST buffer for 3 times, the secondary antibody (Goat anti-rabbit-HRP, Invitrogen, 3146) was diluted (1:5000) with the blocking buffer, and added to the ELISA plate (50 μl/well), followed by the incubation at RT for 1h with gentle shaking. After washing the ELISA plate with 1×TBST for 3 times, the TMB substrate (Thermo Scientific, REF34028) was added the plate (50 μl/well); after the incubation at RT for 5-10 min, 2M H₂SO₄ was added to stop the TMB reaction. OD450 and OD525 of the ELISA plate were detected.

[2] = molecular target: T1, VEGFA-165 (R&D systems 293-VE/CF); assay: ELISA, VEGFA-165 coated, supernatant, anti-HA detection
Experimental: as §1

[3] = molecular target: T1, VEGFA-165 (R&D systems 293-VE/CF); assay: competitive ELISA as in Example 7: inhibition of VEGFR2/KDR Fc binding to coated VEGFA-165
Experimental: After removing the blocker, the detection antibody (rabbit anti-human FC HRP, Thermo) diluted 1:5000 with the blocking buffer, and added 50 μl/well incubated at RT for 1h with 250 rpm gentle shaking. After washing the ELISA plate with 1×TBST for 3 times, the TMB substrate was added the plate (50 μl/well); after the incubation at RT for 5-10 min, 2M H₂SO₄ was added to stop the TMB reaction. OD450 and OD525 of the ELISA plate were detected.
The mono-valent and bi-valent Nb24s in the supernatants were quantified by western blot as described in Example 2, and diluted to a series of concentrations.

T1 sequence (P15692 other isoform, or with tags, fused parts or gaps limits assumed): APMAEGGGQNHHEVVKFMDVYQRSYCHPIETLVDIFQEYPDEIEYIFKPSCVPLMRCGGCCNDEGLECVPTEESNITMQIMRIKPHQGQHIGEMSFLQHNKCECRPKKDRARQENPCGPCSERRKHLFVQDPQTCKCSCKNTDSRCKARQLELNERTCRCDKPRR

EC50 [1] [nM] | Binder | other results
346 | bi-valent Nb24, product expressed by pGCB108-ITR130-AMDF1Nb24-5-(G4S)3-Nb24-5-HA (VHH, Two copies of Nb24 in a single polypeptide; supernatant of transfected Expi293 cells; also called 24-5-G4S3-24-5) EVQLQESGGGLVQPGGSLRLSCTASGFTFDDPDVGWFRQAPGNECELVSTISKDGSTYYTDSVKGRFTISRDYAKNTVYLQMNSLRAEDTAVYYCAADSNPIAPIRTCLGWYNYWGQGTLVTVSSGGGGSGGGGSGGGGSEVQLQESGGGLVQPGGSLRLSCTASGFTFDDPDVGWFRQAPGNECELVSTISKDGSTYYTDSVKGRFTISRDYAKNTVYLQMNSLRAEDTAVYYCAADSNPIAPIRTCLGWYNYWGQGTLVTVSSYPYDVPDYA | –
– | Beovu-scFv with HA tag, product expressed by pGCB108-ITR130-AMDF1-Beovu-scFv (scFv, Benchmark anti-VEGF scFv; supernatant of transfected Expi293 cells; also called Beovu-scFv-HA; F1F3-HA) scFv: EIVMTQSPSTLSASVGDRVIITCQASEIIHSWLAWYQQKPGKAPKLLIYLASTLASGVPSRFSGSGSGAEFTLTISSLQPDDFATYYCQNVYLASTNGANFGQGTKLTVLGGGGGSGGGGSGGGGSGGGGSEVQLVESGGGLVQPGGSLRLSCTASGFSLTDYYYMTWVRQAPGKGLEWVGFIDPDDDPYYATWAKGRFTISRDNSKNTLYLQMNSLRAEDTAVYYCAGGDHNSGWGLDIWGQGTLVTVSSYPYDVPDYA | binding result [2]: binds
– | bi-valent Nb24, product expressed by pGCB108-ITR130-AMDF1Nb24-5-(G4S)2-Nb24-7-HA (VHH, also called 24-5-G4S2-24-7) EVQLQESGGGLVQPGGSLRLSCTASGFTFDDPDVGWFRQAPGNECELVSTISKDGSTYYTDSVKGRFTISRDYAKNTVYLQMNSLRAEDTAVYYCAADSNPIAPIRTCLGWYNYWGQGTLVTVSSGGGGSGGGGSEVQLQESGGGLVQPGGSLRLSCTASGFTFDDPDVGWFRQAPGNECELVSTISKDGSTYYTDSVKGRFTISRDYAKNTVYLQMNSLRAEDTAVYYCAADSNPIAPIRTCLGWYNYWGQGTLVTVSSYPYDVPDYA | IC50 [3]: 25.6 nM; fold better IC50 than mono-valent Nb24 [3]: 5 fold
376 | bi-valent Nb24, product expressed by pGCB108-ITR130-AMDF1Nb24-5-(G4S)2-Nb24-5-HA (VHH, Two copies of Nb24 in a single polypeptide; supernatant of transfected Expi293 cells; also called 24-5-G4S2-24-5) EVQLQESGGGLVQPGGSLRLSCTASGFTFDDPDVGWFRQAPGNECELVSTISKDGSTYYTDSVKGRFTISRDYAKNTVYLQMNSLRAEDTAVYYCAADSNPIAPIRTCLGWYNYWGQGTLVTVSSGGGGSGGGGSEVQLQESGGGLVQPGGSLRLSCTASGFTFDDPDVGWFRQAPGNECELVSTISKDGSTYYTDSVKGRFTISRDYAKNTVYLQMNSLRAEDTAVYYCAADSNPIAPIRTCLGWYNYWGQGTLVTVSSYPYDVPDYA | –
400 | bi-valent Nb24, product expressed by pGCB108-ITR130-AMDF1Nb24-5-(G4S)1-Nb24-5-HA (VHH, Two copies of Nb24 in a single polypeptide; supernatant of transfected Expi293 cells; also called 24-5-G4S1-24-5) EVQLQESGGGLVQPGGSLRLSCTASGFTFDDPDVGWFRQAPGNECELVSTISKDGSTYYTDSVKGRFTISRDYAKNTVYLQMNSLRAEDTAVYYCAADSNPIAPIRTCLGWYNYWGQGTLVTVSSGGGGSEVQLQESGGGLVQPGGSLRLSCTASGFTFDDPDVGWFRQAPGNECELVSTISKDGSTYYTDSVKGRFTISRDYAKNTVYLQMNSLRAEDTAVYYCAADSNPIAPIRTCLGWYNYWGQGTLVTVSSYPYDVPDYA | –
464 | bi-valent Nb24, product expressed by pGCB108-ITR130-AMDF1Nb24-5-(G4S)4-Nb24-5-HA (VHH, Two copies of Nb24 in a single polypeptide; supernatant of transfected Expi293 cells; also called 24-5-G4S4-24-5) EVQLQESGGGLVQPGGSLRLSCTASGFTFDDPDVGWFRQAPGNECELVSTISKDGSTYYTDSVKGRFTISRDYAKNTVYLQMNSLRAEDTAVYYCAADSNPIAPIRTCLGWYNYWGQGTLVTVSSGGGGSGGGGSGGGGSGGGGSEVQLQESGGGLVQPGGSLRLSCTASGFTFDDPDVGWFRQAPGNECELVSTISKDGSTYYTDSVKGRFTISRDYAKNTVYLQMNSLRAEDTAVYYCAADSNPIAPIRTCLGWYNYWGQGTLVTVSSYPYDVPDYA | –
– | mono-valent Nb24 with HA tag, product expressed by pGCB108-ITR130-AMDF1huNb24-5-hGHpA (VHH, Used as supernatant of transfected Expi293 cells, detected by anti-HA; The junction between Nb24 and the HA tag is not spelled out; also called HuNb24-5-HA; Nb24-5-HA) VHH: EVQLQESGGGLVQPGGSLRLSCTASGFTFDDPDVGWFRQAPGNECELVSTISKDGSTYYTDSVKGRFTISRDYAKNTVYLQMNSLRAEDTAVYYCAADSNPIAPIRTCLGWYNYWGQGTLVTVSS | IC50 [3]: 132 nM
